Here are results for 27 molecules from article PMC10786891, “Massively parallel profiling of RNA-targeting CRISPR-Cas13d”.

Sequences and labels used below:
T1: EsCas13d, nuclease-dead (Eubacterium siraeum, UniProt B0MS50, R295A;H300A;R849A;H854A)
T1 sequence: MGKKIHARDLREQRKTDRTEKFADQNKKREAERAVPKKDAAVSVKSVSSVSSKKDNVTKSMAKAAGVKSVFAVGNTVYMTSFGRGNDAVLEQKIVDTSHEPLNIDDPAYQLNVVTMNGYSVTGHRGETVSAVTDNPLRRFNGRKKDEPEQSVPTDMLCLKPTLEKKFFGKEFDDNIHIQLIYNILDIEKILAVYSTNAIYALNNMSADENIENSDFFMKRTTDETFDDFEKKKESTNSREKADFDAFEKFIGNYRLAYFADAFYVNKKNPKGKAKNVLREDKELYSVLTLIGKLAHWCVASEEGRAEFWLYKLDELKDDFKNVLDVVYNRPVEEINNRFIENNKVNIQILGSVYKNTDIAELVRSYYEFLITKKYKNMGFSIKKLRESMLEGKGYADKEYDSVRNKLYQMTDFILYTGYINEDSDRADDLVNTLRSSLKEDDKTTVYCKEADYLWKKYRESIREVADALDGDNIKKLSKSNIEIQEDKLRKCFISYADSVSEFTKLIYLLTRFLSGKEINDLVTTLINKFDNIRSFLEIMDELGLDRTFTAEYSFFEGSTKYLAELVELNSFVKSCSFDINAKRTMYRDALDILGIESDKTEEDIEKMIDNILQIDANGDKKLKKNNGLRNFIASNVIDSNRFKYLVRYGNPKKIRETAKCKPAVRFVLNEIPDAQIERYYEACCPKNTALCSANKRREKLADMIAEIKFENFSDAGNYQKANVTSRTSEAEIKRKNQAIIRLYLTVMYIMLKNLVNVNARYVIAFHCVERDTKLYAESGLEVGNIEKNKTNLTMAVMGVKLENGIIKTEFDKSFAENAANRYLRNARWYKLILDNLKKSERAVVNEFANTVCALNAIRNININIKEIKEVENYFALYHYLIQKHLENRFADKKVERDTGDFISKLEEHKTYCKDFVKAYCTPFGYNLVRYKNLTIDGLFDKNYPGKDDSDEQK

B1: target 1 insC 3' of 10,insG 3' of 9 (mixed)
RNA 1: CACCCGUGCAAAAAUGCAGGGGUCUAAAACUGAGCGGAUAACCUCUCUAUGG
RNA 2: GGGAAUGGAUCCACAUCUACGAAUUCGUACCAUAGAGAGGUUCAGUCCGCUCACCGAGAUCGGAAGAGCACACGU
B2: target 1 insG 3' of 3,insG 3' of 2 (mixed)
RNA 1: CACCCGUGCAAAAAUGCAGGGGUCUAAAACUGAGCGGAUAACCUCUCUAUGG
RNA 2: GGGAAUGGAUCCACAUCUACGAAUUCGUACCAUAGAGAGGUUAUCCGCUGCGACCGAGAUCGGAAGAGCACACGU
B3: target 1 G17U,U19G (mixed)
RNA 1: CACCCGUGCAAAAAUGCAGGGGUCUAAAACUGAGCGGAUAACCUCUCUAUGG
RNA 2: GGGAAUGGAUCCACAUCUACGAAUUCGUACCAGAUAGAGGUUAUCCGCUCACCGAGAUCGGAAGAGCACACGU
B4: target 1 insU 3' of 17,insC 3' of 16 (mixed)
RNA 1: CACCCGUGCAAAAAUGCAGGGGUCUAAAACUGAGCGGAUAACCUCUCUAUGG
RNA 2: GGGAAUGGAUCCACAUCUACGAAUUCGUACCAUAGUACGAGGUUAUCCGCUCACCGAGAUCGGAAGAGCACACGU
B5: target 1 C6A,G17A (mixed)
RNA 1: CACCCGUGCAAAAAUGCAGGGGUCUAAAACUGAGCGGAUAACCUCUCUAUGG
RNA 2: GGGAAUGGAUCCACAUCUACGAAUUCGUACCAUAAAGAGGUUAUCAGCUCACCGAGAUCGGAAGAGCACACGU
B6: target 1 C2G,U3C (mixed)
RNA 1: CACCCGUGCAAAAAUGCAGGGGUCUAAAACUGAGCGGAUAACCUCUCUAUGG
RNA 2: GGGAAUGGAUCCACAUCUACGAAUUCGUACCAUAGAGAGGUUAUCCGCCGACCGAGAUCGGAAGAGCACACGU
B7: target 1 U3G,G5U (mixed)
RNA 1: CACCCGUGCAAAAAUGCAGGGGUCUAAAACUGAGCGGAUAACCUCUCUAUGG
RNA 2: GGGAAUGGAUCCACAUCUACGAAUUCGUACCAUAGAGAGGUUAUCCUCGCACCGAGAUCGGAAGAGCACACGU
B8: target 1 G5C,G17A (mixed)
RNA 1: CACCCGUGCAAAAAUGCAGGGGUCUAAAACUGAGCGGAUAACCUCUCUAUGG
RNA 2: GGGAAUGGAUCCACAUCUACGAAUUCGUACCAUAAAGAGGUUAUCCCCUCACCGAGAUCGGAAGAGCACACGU
B9: target 1 C7A,C22G (mixed)
RNA 1: CACCCGUGCAAAAAUGCAGGGGUCUAAAACUGAGCGGAUAACCUCUCUAUGG
RNA 2: GGGAAUGGAUCCACAUCUACGAAUUCGUAGCAUAGAGAGGUUAUACGCUCACCGAGAUCGGAAGAGCACACGU
B10: target 1 C4G,A9G (mixed)
RNA 1: CACCCGUGCAAAAAUGCAGGGGUCUAAAACUGAGCGGAUAACCUCUCUAUGG
RNA 2: GGGAAUGGAUCCACAUCUACGAAUUCGUACCAUAGAGAGGUUGUCCGGUCACCGAGAUCGGAAGAGCACACGU
B11: target 1 insC 3' of 15,insA 3' of 10 (mixed)
RNA 1: CACCCGUGCAAAAAUGCAGGGGUCUAAAACUGAGCGGAUAACCUCUCUAUGG
RNA 2: GGGAAUGGAUCCACAUCUACGAAUUCGUACCAUAGAGCAGGUUAAUCCGCUCACCGAGAUCGGAAGAGCACACGU
B12: target 1 insG 3' of 8,insC 3' of 3 (mixed)
RNA 1: CACCCGUGCAAAAAUGCAGGGGUCUAAAACUGAGCGGAUAACCUCUCUAUGG
RNA 2: GGGAAUGGAUCCACAUCUACGAAUUCGUACCAUAGAGAGGUUAUGCCGCUCCACCGAGAUCGGAAGAGCACACGU
B13: target 1 C7U,G12U (mixed)
RNA 1: CACCCGUGCAAAAAUGCAGGGGUCUAAAACUGAGCGGAUAACCUCUCUAUGG
RNA 2: GGGAAUGGAUCCACAUCUACGAAUUCGUACCAUAGAGAGUUUAUUCGCUCACCGAGAUCGGAAGAGCACACGU
B14: target 1 C4G,C21A (mixed)
RNA 1: CACCCGUGCAAAAAUGCAGGGGUCUAAAACUGAGCGGAUAACCUCUCUAUGG
RNA 2: GGGAAUGGAUCCACAUCUACGAAUUCGUACAAUAGAGAGGUUAUCCGGUCACCGAGAUCGGAAGAGCACACGU
B15: target 1 insU 3' of 18,insC 3' of 15 (mixed)
RNA 1: CACCCGUGCAAAAAUGCAGGGGUCUAAAACUGAGCGGAUAACCUCUCUAUGG
RNA 2: GGGAAUGGAUCCACAUCUACGAAUUCGUACCAUAUGAGCAGGUUAUCCGCUCACCGAGAUCGGAAGAGCACACGU
B16: target 1 C2U,A20C (mixed)
RNA 1: CACCCGUGCAAAAAUGCAGGGGUCUAAAACUGAGCGGAUAACCUCUCUAUGG
RNA 2: GGGAAUGGAUCCACAUCUACGAAUUCGUACCCUAGAGAGGUUAUCCGCUUACCGAGAUCGGAAGAGCACACGU
B17: target 1 A1U,C4A (mixed)
RNA 1: CACCCGUGCAAAAAUGCAGGGGUCUAAAACUGAGCGGAUAACCUCUCUAUGG
RNA 2: GGGAAUGGAUCCACAUCUACGAAUUCGUACCAUAGAGAGGUUAUCCGAUCUCCGAGAUCGGAAGAGCACACGU
B18: target 1 C2A,G13U (mixed)
RNA 1: CACCCGUGCAAAAAUGCAGGGGUCUAAAACUGAGCGGAUAACCUCUCUAUGG
RNA 2: GGGAAUGGAUCCACAUCUACGAAUUCGUACCAUAGAGAUGUUAUCCGCUAACCGAGAUCGGAAGAGCACACGU
B19: target 1 insU 3' of 20,insC 3' of 18 (mixed)
RNA 1: CACCCGUGCAAAAAUGCAGGGGUCUAAAACUGAGCGGAUAACCUCUCUAUGG
RNA 2: GGGAAUGGAUCCACAUCUACGAAUUCGUACCAUUACGAGAGGUUAUCCGCUCACCGAGAUCGGAAGAGCACACGU
B20: target 1 insC 3' of 18,insU 3' of 5 (mixed)
RNA 1: CACCCGUGCAAAAAUGCAGGGGUCUAAAACUGAGCGGAUAACCUCUCUAUGG
RNA 2: GGGAAUGGAUCCACAUCUACGAAUUCGUACCAUACGAGAGGUUAUCCGUCUCACCGAGAUCGGAAGAGCACACGU
B21: target 1 complement block 1-7 (mixed)
RNA 1: CACCCGUGCAAAAAUGCAGGGGUCUAAAACUGAGCGGAUAACCUCUCUAUGG
RNA 2: GGGAAUGGAUCCACAUCUACGAAUUCGUACCAUAGAGAGGUUAUGGCGAGUCCGAGAUCGGAAGAGCACACGU
B22: target 1 U3G,A20U (mixed)
RNA 1: CACCCGUGCAAAAAUGCAGGGGUCUAAAACUGAGCGGAUAACCUCUCUAUGG
RNA 2: GGGAAUGGAUCCACAUCUACGAAUUCGUACCUUAGAGAGGUUAUCCGCGCACCGAGAUCGGAAGAGCACACGU
B23: target 1 insC 3' of 14,insG 3' of 14 (mixed)
RNA 1: CACCCGUGCAAAAAUGCAGGGGUCUAAAACUGAGCGGAUAACCUCUCUAUGG
RNA 2: GGGAAUGGAUCCACAUCUACGAAUUCGUACCAUAGAGACGGGUUAUCCGCUCACCGAGAUCGGAAGAGCACACGU
B24: target 1 U3G,A14G (mixed)
RNA 1: CACCCGUGCAAAAAUGCAGGGGUCUAAAACUGAGCGGAUAACCUCUCUAUGG
RNA 2: GGGAAUGGAUCCACAUCUACGAAUUCGUACCAUAGAGGGGUUAUCCGCGCACCGAGAUCGGAAGAGCACACGU
B25: target 1 U10A,U11A (mixed)
RNA 1: CACCCGUGCAAAAAUGCAGGGGUCUAAAACUGAGCGGAUAACCUCUCUAUGG
RNA 2: GGGAAUGGAUCCACAUCUACGAAUUCGUACCAUAGAGAGGAAAUCCGCUCACCGAGAUCGGAAGAGCACACGU
B26: target 1 insC 3' of 16,insC 3' of 1 (mixed)
RNA 1: CACCCGUGCAAAAAUGCAGGGGUCUAAAACUGAGCGGAUAACCUCUCUAUGG
RNA 2: GGGAAUGGAUCCACAUCUACGAAUUCGUACCAUAGACGAGGUUAUCCGCUCACCCGAGAUCGGAAGAGCACACGU
B27: target 1 G5C,C6G (mixed)
RNA 1: CACCCGUGCAAAAAUGCAGGGGUCUAAAACUGAGCGGAUAACCUCUCUAUGG
RNA 2: GGGAAUGGAUCCACAUCUACGAAUUCGUACCAUAGAGAGGUUAUCGCCUCACCGAGAUCGGAAGAGCACACGU

For orientation: Kd means the constant that tells how readily two partners part at equilibrium. Higher therefore signals weaker binding.

The data set concerns the target T1, EsCas13d, nuclease-dead. The experiment in a line: crRNA (strand 1, pre-loaded); Mg2+; 40 mM Tris-HCl pH 7.5, 150 mM NaCl, 6 mM MgCl2, 1 mM DTT, 0.1% Tween-20, 0.2 mg/ml BSA; 25 C; 10 min per concentration, then washed. The conditions noted are these: tags: His6-TwinStrep-SUMO cleaved; N-terminal SNAP kept (SNAP-Surface 488); label: 3' end held by stalled T7 RNA polymerase.
Molecule B1 displayed a Kd of 17.1 ± 1 nM. B2: the Kd amounted to 6.2 ± 0.4 nM. In turn, B3 came in with a Kd of 80 ± 40 nM. In turn, B4 showed a dissociation constant (Kd) of 91 ± 20 nM. As to B5, the Kd was determined as 37.8 ± 2.4 nM. For B6, the Kd amounted to 8.6 ± 0.7 nM. Molecule B7 returned a Kd of 14.1 ± 0.5 nM.

The molecule B8 had a Kd of 79 ± 28 nM.

Take B9: the Kd came out at 41 ± 6 nM. On to B10, for which the Kd came out at 3.9 ± 0.34 nM.

B11 displayed a Kd of 65 ± 11 nM. B12: the Kd is 12.7 ± 0.6 nM. B13 had a Kd of 13.4 ± 1.1 nM. With B14, binding was put at a Kd of 25.5 ± 2.8 nM. The molecule B15 displayed a Kd of 49 ± 5 nM. B16 returned a Kd of 31.4 ± 1.6 nM. As for B17, the affinity, expressed as Kd, was 5.92 ± 0.27 nM. In turn, B18 came in with a dissociation constant Kd of 49 ± 8 nM.

Turning to B19, the Kd came out at 36 ± 4 nM. The same measure for B20: 84 ± 31 nM; for B21: 23.9 ± 2.4 nM. In turn, B22 gave a dissociation constant Kd of 38 ± 4 nM. In the case of B23 it was 50 ± 6 nM; in that of B24, 12.9 ± 1.2 nM; in that of B25, 11.8 ± 0.4 nM. In the case of B26 it was 77 ± 32 nM; in that of B27, 10.9 ± 0.6 nM.
